# From patent publication US20260242839A1, “GLYCOSIDE PRODUCT BIOSYNTHESIS AND RECOVERY” (Manus Bio Inc., priority 2023, published 2026)
# B1: A143W: mutation to UGT enzyme of SEQ ID NO: 14 (protein)
# chain: MATKNSSGMSLAERFWLTLSRSSLVVGRSCVEFEPETVPLLSTLRGKPITFLGLMPPLHEGRREDGEDATVRWLDAQPAKSVVYVALGSEVPLGVEKVHELALGLELAGTRFLWALRKPTGVSDADLLPAGFEERTRGRGVVWTRWVPQMSILAHAAVGAFLTHCGWNSTIEGLMFGHPLIMLPITGDQGPNARLIEAKNAGLQVARNDGDGSFDREGVAAAIRAVAVEEESSKVFQAKAKKLQEIVADMACHERYIDGFIQQLRSYKDDSGYSSSYAAAAGMHVVICPWLAFGHLLPCLDLAQRLASRGHRVSFVSTPRNISRLPPVRPALAPLVAFVALPLPRVEGLPDGAESTNDVPHDRPDMVELHRRAFDGLAAPFSEFLGTACADWVIVDSFHHWAAAAALEHKVPCAMMLLGSAEMIASIADERLEHAETESPAAAGQGRPAAAPTFEVARMKLIR
# B2: Q244K: mutation to UGT enzyme of SEQ ID NO: 14 (protein)
# chain: MATKNSSGMSLAERFWLTLSRSSLVVGRSCVEFEPETVPLLSTLRGKPITFLGLMPPLHEGRREDGEDATVRWLDAQPAKSVVYVALGSEVPLGVEKVHELALGLELAGTRFLWALRKPTGVSDADLLPAGFEERTRGRGVVATRWVPQMSILAHAAVGAFLTHCGWNSTIEGLMFGHPLIMLPITGDQGPNARLIEAKNAGLQVARNDGDGSFDREGVAAAIRAVAVEEESSKVFQAKAKKLKEIVADMACHERYIDGFIQQLRSYKDDSGYSSSYAAAAGMHVVICPWLAFGHLLPCLDLAQRLASRGHRVSFVSTPRNISRLPPVRPALAPLVAFVALPLPRVEGLPDGAESTNDVPHDRPDMVELHRRAFDGLAAPFSEFLGTACADWVIVDSFHHWAAAAALEHKVPCAMMLLGSAEMIASIADERLEHAETESPAAAGQGRPAAAPTFEVARMKLIR
# B3: T453F: mutation to UGT enzyme of SEQ ID NO: 14 (protein)
# chain: MATKNSSGMSLAERFWLTLSRSSLVVGRSCVEFEPETVPLLSTLRGKPITFLGLMPPLHEGRREDGEDATVRWLDAQPAKSVVYVALGSEVPLGVEKVHELALGLELAGTRFLWALRKPTGVSDADLLPAGFEERTRGRGVVATRWVPQMSILAHAAVGAFLTHCGWNSTIEGLMFGHPLIMLPITGDQGPNARLIEAKNAGLQVARNDGDGSFDREGVAAAIRAVAVEEESSKVFQAKAKKLQEIVADMACHERYIDGFIQQLRSYKDDSGYSSSYAAAAGMHVVICPWLAFGHLLPCLDLAQRLASRGHRVSFVSTPRNISRLPPVRPALAPLVAFVALPLPRVEGLPDGAESTNDVPHDRPDMVELHRRAFDGLAAPFSEFLGTACADWVIVDSFHHWAAAAALEHKVPCAMMLLGSAEMIASIADERLEHAETESPAAAGQGRPAAAPFFEVARMKLIR
# B4: I427F: mutation to UGT enzyme of SEQ ID NO: 14 (protein)
# chain: MATKNSSGMSLAERFWLTLSRSSLVVGRSCVEFEPETVPLLSTLRGKPITFLGLMPPLHEGRREDGEDATVRWLDAQPAKSVVYVALGSEVPLGVEKVHELALGLELAGTRFLWALRKPTGVSDADLLPAGFEERTRGRGVVATRWVPQMSILAHAAVGAFLTHCGWNSTIEGLMFGHPLIMLPITGDQGPNARLIEAKNAGLQVARNDGDGSFDREGVAAAIRAVAVEEESSKVFQAKAKKLQEIVADMACHERYIDGFIQQLRSYKDDSGYSSSYAAAAGMHVVICPWLAFGHLLPCLDLAQRLASRGHRVSFVSTPRNISRLPPVRPALAPLVAFVALPLPRVEGLPDGAESTNDVPHDRPDMVELHRRAFDGLAAPFSEFLGTACADWVIVDSFHHWAAAAALEHKVPCAMMLLGSAEMIASFADERLEHAETESPAAAGQGRPAAAPTFEVARMKLIR
# B5: R45F: mutation to UGT enzyme of SEQ ID NO: 14 (protein)
# chain: MATKNSSGMSLAERFWLTLSRSSLVVGRSCVEFEPETVPLLSTLFGKPITFLGLMPPLHEGRREDGEDATVRWLDAQPAKSVVYVALGSEVPLGVEKVHELALGLELAGTRFLWALRKPTGVSDADLLPAGFEERTRGRGVVATRWVPQMSILAHAAVGAFLTHCGWNSTIEGLMFGHPLIMLPITGDQGPNARLIEAKNAGLQVARNDGDGSFDREGVAAAIRAVAVEEESSKVFQAKAKKLQEIVADMACHERYIDGFIQQLRSYKDDSGYSSSYAAAAGMHVVICPWLAFGHLLPCLDLAQRLASRGHRVSFVSTPRNISRLPPVRPALAPLVAFVALPLPRVEGLPDGAESTNDVPHDRPDMVELHRRAFDGLAAPFSEFLGTACADWVIVDSFHHWAAAAALEHKVPCAMMLLGSAEMIASIADERLEHAETESPAAAGQGRPAAAPTFEVARMKLIR
# B6: T37S: mutation to UGT enzyme of SEQ ID NO: 14 (protein)
# chain: MATKNSSGMSLAERFWLTLSRSSLVVGRSCVEFEPESVPLLSTLRGKPITFLGLMPPLHEGRREDGEDATVRWLDAQPAKSVVYVALGSEVPLGVEKVHELALGLELAGTRFLWALRKPTGVSDADLLPAGFEERTRGRGVVATRWVPQMSILAHAAVGAFLTHCGWNSTIEGLMFGHPLIMLPITGDQGPNARLIEAKNAGLQVARNDGDGSFDREGVAAAIRAVAVEEESSKVFQAKAKKLQEIVADMACHERYIDGFIQQLRSYKDDSGYSSSYAAAAGMHVVICPWLAFGHLLPCLDLAQRLASRGHRVSFVSTPRNISRLPPVRPALAPLVAFVALPLPRVEGLPDGAESTNDVPHDRPDMVELHRRAFDGLAAPFSEFLGTACADWVIVDSFHHWAAAAALEHKVPCAMMLLGSAEMIASIADERLEHAETESPAAAGQGRPAAAPTFEVARMKLIR
# B7: T186I: mutation to UGT enzyme of SEQ ID NO: 14 (protein)
# chain: MATKNSSGMSLAERFWLTLSRSSLVVGRSCVEFEPETVPLLSTLRGKPITFLGLMPPLHEGRREDGEDATVRWLDAQPAKSVVYVALGSEVPLGVEKVHELALGLELAGTRFLWALRKPTGVSDADLLPAGFEERTRGRGVVATRWVPQMSILAHAAVGAFLTHCGWNSTIEGLMFGHPLIMLPIIGDQGPNARLIEAKNAGLQVARNDGDGSFDREGVAAAIRAVAVEEESSKVFQAKAKKLQEIVADMACHERYIDGFIQQLRSYKDDSGYSSSYAAAAGMHVVICPWLAFGHLLPCLDLAQRLASRGHRVSFVSTPRNISRLPPVRPALAPLVAFVALPLPRVEGLPDGAESTNDVPHDRPDMVELHRRAFDGLAAPFSEFLGTACADWVIVDSFHHWAAAAALEHKVPCAMMLLGSAEMIASIADERLEHAETESPAAAGQGRPAAAPTFEVARMKLIR
# B8: C252R: mutation to UGT enzyme of SEQ ID NO: 14 (protein)
# chain: MATKNSSGMSLAERFWLTLSRSSLVVGRSCVEFEPETVPLLSTLRGKPITFLGLMPPLHEGRREDGEDATVRWLDAQPAKSVVYVALGSEVPLGVEKVHELALGLELAGTRFLWALRKPTGVSDADLLPAGFEERTRGRGVVATRWVPQMSILAHAAVGAFLTHCGWNSTIEGLMFGHPLIMLPITGDQGPNARLIEAKNAGLQVARNDGDGSFDREGVAAAIRAVAVEEESSKVFQAKAKKLQEIVADMARHERYIDGFIQQLRSYKDDSGYSSSYAAAAGMHVVICPWLAFGHLLPCLDLAQRLASRGHRVSFVSTPRNISRLPPVRPALAPLVAFVALPLPRVEGLPDGAESTNDVPHDRPDMVELHRRAFDGLAAPFSEFLGTACADWVIVDSFHHWAAAAALEHKVPCAMMLLGSAEMIASIADERLEHAETESPAAAGQGRPAAAPTFEVARMKLIR
# B9: M250K_A251E_C252L: mutation to UGT enzyme of SEQ ID NO: 14 (protein)
# chain: MATKNSSGMSLAERFWLTLSRSSLVVGRSCVEFEPETVPLLSTLRGKPITFLGLMPPLHEGRREDGEDATVRWLDAQPAKSVVYVALGSEVPLGVEKVHELALGLELAGTRFLWALRKPTGVSDADLLPAGFEERTRGRGVVATRWVPQMSILAHAAVGAFLTHCGWNSTIEGLMFGHPLIMLPITGDQGPNARLIEAKNAGLQVARNDGDGSFDREGVAAAIRAVAVEEESSKVFQAKAKKLQEIVADKELHERYIDGFIQQLRSYKDDSGYSSSYAAAAGMHVVICPWLAFGHLLPCLDLAQRLASRGHRVSFVSTPRNISRLPPVRPALAPLVAFVALPLPRVEGLPDGAESTNDVPHDRPDMVELHRRAFDGLAAPFSEFLGTACADWVIVDSFHHWAAAAALEHKVPCAMMLLGSAEMIASIADERLEHAETESPAAAGQGRPAAAPTFEVARMKLIR
# B10: V38F: mutation to UGT enzyme of SEQ ID NO: 14 (protein)
# chain: MATKNSSGMSLAERFWLTLSRSSLVVGRSCVEFEPETFPLLSTLRGKPITFLGLMPPLHEGRREDGEDATVRWLDAQPAKSVVYVALGSEVPLGVEKVHELALGLELAGTRFLWALRKPTGVSDADLLPAGFEERTRGRGVVATRWVPQMSILAHAAVGAFLTHCGWNSTIEGLMFGHPLIMLPITGDQGPNARLIEAKNAGLQVARNDGDGSFDREGVAAAIRAVAVEEESSKVFQAKAKKLQEIVADMACHERYIDGFIQQLRSYKDDSGYSSSYAAAAGMHVVICPWLAFGHLLPCLDLAQRLASRGHRVSFVSTPRNISRLPPVRPALAPLVAFVALPLPRVEGLPDGAESTNDVPHDRPDMVELHRRAFDGLAAPFSEFLGTACADWVIVDSFHHWAAAAALEHKVPCAMMLLGSAEMIASIADERLEHAETESPAAAGQGRPAAAPTFEVARMKLIR
# Test system: steviol glycoside
# Assay: steviol glycoside bioconversion by E. coli expressing individual mutations of UGT SEQ ID NO: 14
# Assay type: cell-based
# Conditions: fold improvement of % conversion vs parent UGT SEQ ID NO: 14; stevia leaf extract and glucose fed; 37° C., 48 hr
# Procedure: Fold improvement is with respect to % steviol glycoside conversion of the parent UGT enzyme of SEQ ID NO: 14. The UGT enzyme of SEQ ID NO: 15 has the following mutations from SEQ ID NO: 14: ins_A2_T3_RR, H59P, A238E, L417F. Stevia leaf extract and glucose were fed to the bioconversion strains. Bioconversion took place at 37° C. for 48 hr. Data were quantified by reverse phase LC DAD to quantify conversion of steviol glycosides.
# Fold improvement (FI) is with respect to % steviol glycoside conversion.
Molecule,FI %Stevioside→rebE,FI %rebA→rebD
B1,1.3,1.3
B2,1.25,1.16
B3,1.32,1.20
B4,1.15,1.24
B5,1.35,1.18
B6,1.35,1.17
B7,1.48,1.24
B8,1.25,1.19
B9,1.40,1.23
B10,1.33,1.19
